In US20220204567A1 (published 2022) one finds EC50 data, which are given here for 3 molecules.

Holding throughout (assay): ELISA
(In general: In an ELISA, binding on a coated surface is turned into a signal by an enzyme label.)

Assay [1] has as its target wild type HA ectodomain of H3 A/Hong Kong/1/1968 with C-terminal Foldon trimerization domain.
The target in assay [2] is wild type HA ectodomain of H1 A/Michigan/45/2015 with C-terminal Foldon trimerization domain.
The target of assay [3] is UFV4239, wild type HA ectodomain of H1 A/California/07/2009 without Foldon trimerization domain.
Assay [4] concerns the target wild type HA ectodomain of H3 A/Indiana/11/2011 with C-terminal Foldon trimerization domain.

B1: CR8020 (antibody, V domains shown)
VH: QVQLQQSGAEVKTPGASVKVSCKASGYTFTSFGVSWIRQAPGQGLEWIGWISAYNGDTYYAQKFQARVTMTTDTSTTTAYMEMRSLRSDDTAVYYCAREPPLFYSSWSLDNWGQGTLVTVSS
VL: EIVLTQSPGTLSLSPGERATLSCRASQSVSMNYLAWFQQKPGQAPRLLIYGASRRATGIPDRISGSGSGTDFTLTISRLEPADFAVYYCQQYGTSPRTFGQGAKVEIK
As usually defined, the EC50 is the concentration needed to bring the measured effect to its halfway point. Higher therefore signals a less potent agent. On to B1, for which the EC50 was 1.6 nM in assay [1], greater than 70 nM in assay [2], greater than 70 nM in assay [3] and 1.9 nM in assay [4].

B2: CR9114 (antibody, V domains shown)
VH: QVQLVQSGAEVKKPGSSVKVSCKSSGGTSNNYAISWVRQAPGQGLDWMGGISPIFGSTAYAQKFQGRVTISADIFSNTAYMELNSLTSEDTAVYFCARHGNYYYYSGMDVWGQGTTVTVSS
VL: SYVLTQPPAVSGTPGQRVTISCSGSDSNIGRRSVNWYQQFPGTAPKLLIYSNDQRPSVVPDRFSGSKSGTSASLAISGLQSEDEAEYYCAAWDDSLKGAVFGGGTQLTVL
On to B2, for which the EC50 in assay [1] amounted to 12.7 nM; in assay [4] it was 25 nM.

B3: CR6261 (antibody, V domains shown)
VH: EVQLVESGAEVKKPGSSVKVSCKASGGPFRSYAISWVRQAPGQGPEWMGGIIPIFGTTKYAPKFQGRVTITADDFAGTVYMELSSLRSEDTAMYYCAKHMGYQVRETMDVWGKGTTVTVSS
VL: QSVLTQPPSVSAAPGQKVTISCSGSSSNIGNDYVSWYQQLPGTAPKLLIYDNNKRPSGIPDRFSGSKSGTSATLGITGLQTGDEANYYCATWDRRPTAYVVFGGGTKLTVL
Take B3: the EC50 in assay [1] was greater than 70 nM; in assay [2], 0.6 nM; in assay [3], 1 nM; in assay [4], greater than 70 nM.
